Results taken from article PMC2173783.
Where two headings read alike, the source gives them in different places.

Experiments:
[1] = target: bt-SR (bt-SRβ + SRα) (canine); test: IAsys optical biosensor
Sec61 complex = test: radioligand binding
[2] = target: SRP receptor purified from canine pancreas (canine) (UniProt P06625); test: radioligand binding
[3] = target: bt-SR (bt-SRβ + SRα) (canine); test: IAsys optical biosensor; remark: listed apart in the source
[4] = target: bt-SR (bt-SRβ + SRα) (canine); test: IAsys optical biosensor; remark: listed apart in the source

Kd [1] [nM] | Kd (Sec61 complex) [nM] | Kd [2] [nM] | stoichiometry N [2] | Kd [3] [nM] | koff [1] [s⁻¹] | kon [1] [M⁻¹ s⁻¹] | koff [4] [s⁻¹] | Substance
0.9 | 5.4 | 0.87 | 1 | 1.9 | – | – | – | 80S ribosomes (complex)
– | – | – | – | – | 0.0069 | 48000 | 0.0065 | signal recognition particle (from UniProt P61010 1-504) (complex)
